Test results taken from patent publication US20210388087A1 (Chugai, published 2021).
Residue numbers refer to the chain shown, from its start. Numbers in names are those of the source.

B1: H183/L072 VH S99A (antibody, name in Kabat numbering, V domains shown)
VH: QVQLVESGGGLVQPGRSLRLSCAASGFTFSNAWMHWVRQAPGKGLEWVAQIKDKGNAYAAYYAPSVKGRFTISRDDSKNSIYLQMNSLKTEDTAVYYCHYVHYAAASTVLPAFGVDAWGQGTTVTVSS
VL: DIVMTQSPLSLPVTPGEPASISCQASQELVHMNRNTYLHWYQQKPGQAPRLLIYKVSNRFPGVPDRFSGSGSGTDFTLKISRVEAEDVGVYYCAQGTSVPFTFGQGTKLEIK
B2: H183/L072 VH T28I (antibody, name in Kabat numbering, V domains shown)
VH: B1 VH with T28I, A105S
VL: B1 VL
B3: H183/L072 VH V95A (antibody, name in Kabat numbering, V domains shown)
VH: B1 VH with V101A, A105S
VL: B1 VL
B4: H183/L072 VH S99P (antibody, name in Kabat numbering, V domains shown)
VH: B1 VH with A105P
VL: B1 VL
B5: H183/L072 VH V100cI (antibody, name in Kabat numbering, V domains shown)
VH: B1 VH with A105S, V109I
VL: B1 VL
B6: H183/L072 VH V63P (antibody, name in Kabat numbering, V domains shown)
VH: B1 VH with V66P, A105S
VL: B1 VL
B7: H183/L072 VH T28H (antibody, name in Kabat numbering, V domains shown)
VH: B1 VH with T28H, A105S
VL: B1 VL
B8: H183/L072 VH T100bM (antibody, name in Kabat numbering, V domains shown)
VH: B1 VH with A105S, T108M
VL: B1 VL
B9: H183/L072 VH V95I (antibody, name in Kabat numbering, V domains shown)
VH: B1 VH with V101I, A105S
VL: B1 VL
B10: H183/L072 VH V63L (antibody, name in Kabat numbering, V domains shown)
VH: B1 VH with V66L, A105S
VL: B1 VL
B11: H183/L072 VH T28N (antibody, name in Kabat numbering, V domains shown)
VH: B1 VH with T28N, A105S
VL: B1 VL
B12: H183/L072 VH V63I (antibody, name in Kabat numbering, V domains shown)
VH: B1 VH with V66I, A105S
VL: B1 VL
B13: H183/L072 VH S100aI (antibody, name in Kabat numbering, V domains shown)
VH: B1 VH with A105S, S107I
VL: B1 VL
B14: H183/L072 VH T100bI (antibody, name in Kabat numbering, V domains shown)
VH: B1 VH with A105S, T108I
VL: B1 VL
B15: H183/L072 VH V95M (antibody, name in Kabat numbering, V domains shown)
VH: B1 VH with V101M, A105S
VL: B1 VL
B16: H183/L072 VH S100aA (antibody, name in Kabat numbering, V domains shown)
VH: B1 VH with A105S, S107A
VL: B1 VL
B17: H183/L072 VH S99M (antibody, name in Kabat numbering, V domains shown)
VH: B1 VH with A105M
VL: B1 VL
B18: H183/L072 VH T28P (antibody, name in Kabat numbering, V domains shown)
VH: B1 VH with T28P, A105S
VL: B1 VL
B19: H183/L072 VH T28G (antibody, name in Kabat numbering, V domains shown)
VH: B1 VH with T28G, A105S
VL: B1 VL
B20: H183/L072 VH T28K (antibody, name in Kabat numbering, V domains shown)
VH: B1 VH with T28K, A105S
VL: B1 VL
B21: H183/L072 VH V100cL (antibody, name in Kabat numbering, V domains shown)
VH: B1 VH with A105S, V109L
VL: B1 VL
B22: H183/L072 VH V63M (antibody, name in Kabat numbering, V domains shown)
VH: B1 VH with V66M, A105S
VL: B1 VL
B23: H183/L072 VH T28A (antibody, name in Kabat numbering, V domains shown)
VH: B1 VH with T28A, A105S
VL: B1 VL
B24: H183/L072 VH S100aL (antibody, name in Kabat numbering, V domains shown)
VH: B1 VH with A105S, S107L
VL: B1 VL
B25: H183/L072 VH V95P (antibody, name in Kabat numbering, V domains shown)
VH: B1 VH with V101P, A105S
VL: B1 VL
B26: H183/L072 VH T28Q (antibody, name in Kabat numbering, V domains shown)
VH: B1 VH with T28Q, A105S
VL: B1 VL
B27: H183/L072 VH V100cA (antibody, name in Kabat numbering, V domains shown)
VH: B1 VH with A105S, V109A
VL: B1 VL
B28: H183/L072 VH T100bA (antibody, name in Kabat numbering, V domains shown)
VH: B1 VH with A105S, T108A
VL: B1 VL
B29: H183/L072 VH V95L (antibody, name in Kabat numbering, V domains shown)
VH: B1 VH with V101L, A105S
VL: B1 VL
B30: H183/L072 VH S99L (antibody, name in Kabat numbering, V domains shown)
VH: B1 VH with A105L
VL: B1 VL
B31: H183/L072 VH S100aP (antibody, name in Kabat numbering, V domains shown)
VH: B1 VH with A105S, S107P
VL: B1 VL
B32: H183/L072 VH T28F (antibody, name in Kabat numbering, V domains shown)
VH: B1 VH with T28F, A105S
VL: B1 VL
B33: H183/L072 VH T28S (antibody, name in Kabat numbering, V domains shown)
VH: B1 VH with T28S, A105S
VL: B1 VL
B34: H183/L072 VH V63A (antibody, name in Kabat numbering, V domains shown)
VH: B1 VH with V66A, A105S
VL: B1 VL
B35: H183/L072 VH T100bP (antibody, name in Kabat numbering, V domains shown)
VH: B1 VH with A105S, T108P
VL: B1 VL
B36: H183/L072 VH T28D (antibody, name in Kabat numbering, V domains shown)
VH: B1 VH with T28D, A105S
VL: B1 VL
B37: H183/L072 VH T28W (antibody, name in Kabat numbering, V domains shown)
VH: B1 VH with T28W, A105S
VL: B1 VL
B38: H183/L072 VH T28R (antibody, name in Kabat numbering, V domains shown)
VH: B1 VH with T28R, A105S
VL: B1 VL
B39: H183/L072 VH S100aM (antibody, name in Kabat numbering, V domains shown)
VH: B1 VH with A105S, S107M
VL: B1 VL
B40: H183/L072 VH T28E (antibody, name in Kabat numbering, V domains shown)
VH: B1 VH with T28E, A105S
VL: B1 VL
B41: H183/L072 VH T100bL (antibody, name in Kabat numbering, V domains shown)
VH: B1 VH with A105S, T108L
VL: B1 VL
B42: H183/L072 VH S99I (antibody, name in Kabat numbering, V domains shown)
VH: B1 VH with A105I
VL: B1 VL
B43: H183/L072 VH T28M (antibody, name in Kabat numbering, V domains shown)
VH: B1 VH with T28M, A105S
VL: B1 VL
B44: H183/L072 VH T28L (antibody, name in Kabat numbering, V domains shown)
VH: B1 VH with T28L, A105S
VL: B1 VL
B45: H183/L072 VH T28V (antibody, name in Kabat numbering, V domains shown)
VH: B1 VH with T28V, A105S
VL: B1 VL

Target: T1, Human CD3eg linker (human)
T1 construct: Single chain: epsilon and gamma subunits of human CD3 joined by a 29-mer linker, Flag-tag at the C-terminus; also called recombinant human CD3
T1 chain: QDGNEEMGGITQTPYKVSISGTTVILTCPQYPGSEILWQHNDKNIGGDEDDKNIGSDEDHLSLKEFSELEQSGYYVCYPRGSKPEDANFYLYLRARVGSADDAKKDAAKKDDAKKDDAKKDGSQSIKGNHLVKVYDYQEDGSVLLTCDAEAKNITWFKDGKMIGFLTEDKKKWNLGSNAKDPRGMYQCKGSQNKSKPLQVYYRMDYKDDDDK
Assay: Biacore SPR, vs template H183/L072

First: B1
Second: B2
The “fold change of affinity” value of the first is lower: 1 fold for the first, 1.1 fold for the second.

Going from B3 to B4, the “fold change of affinity” value rises from 0 fold to 0.6 fold.

Compared with B5, B6 is higher in “fold change of affinity” value: 1 fold for the first, 1.2 fold for the second.

Compared with B7, B8 is higher in “fold change of affinity” value: 0.9 fold for the first, 1 fold for the second.

Compared with B9, B10 is lower in “fold change of affinity” value: 7.5 fold for the first, 1.6 fold for the second.

Going from B11 to B12, the “fold change of affinity” value rises from 0.8 fold to 1.4 fold.

Going from B13 to B14, the “fold change of affinity” value rises from 1 fold to 1.4 fold.

Going from B15 to B16, the “fold change of affinity” value rises from 0.3 fold to 0.8 fold.

Going from B17 to B18, the “fold change of affinity” value falls from 0.9 fold to 0.7 fold.

Going from B19 to B20, the “fold change of affinity” value rises from 0.7 fold to 2.7 fold.

First: B21
Second: B22
The “fold change of affinity” value of the first is lower: 1.2 fold for the first, 1.4 fold for the second.

First: B23
Second: B24
The “fold change of affinity” value of the first is lower: 0 fold for the first, 1.1 fold for the second.

B25 and B26 are the same in “fold change of affinity” value: 0 fold for the first, 0 fold for the second.

B27 and B28 are the same in “fold change of affinity” value: 1.1 fold for the first, 1.1 fold for the second.

First: B29
Second: B30
The “fold change of affinity” value of the first is lower: 0 fold for the first, 0.8 fold for the second.

First: B31
Second: B32
The “fold change of affinity” value of the first is higher: 1.1 fold for the first, 1 fold for the second.

Compared with B33, B34 is lower in “fold change of affinity” value: 1.2 fold for the first, 1.1 fold for the second.

Going from B35 to B36, the “fold change of affinity” value falls from 1.1 fold to 0.6 fold.

Compared with B37, B38 is higher in “fold change of affinity” value: 0.9 fold for the first, 2.9 fold for the second.

First: B39
Second: B40
The “fold change of affinity” value of the first is higher: 0.8 fold for the first, 0.6 fold for the second.

Compared with B41, B42 is lower in “fold change of affinity” value: 1.1 fold for the first, 0.7 fold for the second.

Compared with B43, B44 is higher in “fold change of affinity” value: 0.8 fold for the first, 0.9 fold for the second.

B45 was tested, and the “fold change of affinity” value was 1 fold.
